The results in this text go back to paper PMC2671235 (Biochemistry, 2009).

The chains are these.
B1: Annexin I peptide (peptide)
peptide: Ac-AMVSEFLKQAWFIE
B2: S100A11 (natural protein, human, UniProt P31949 1-105, looked up)
chain: MAKISSPTETERCIESLIAVFQKYAGKDGYNYTLSKTEFLSFMNTELAAFTKNQKDPGVLDRMMKKLDTNSDGQLDFSEFLNLIGGLAMACHDSFLKAVPSQKRT

Ends that are not written are not given here.

Assay [1] deals with B2. Put plainly: ITC. (In ITC the heat of successive injections is recorded.)
The target of another assay is S100A10 (human, UniProt P60903 1-97). Description: ITC.
Assay [2] addresses B2. Put plainly: other fluorescence titration.
Assay [3] deals with T1, S100A6 (human, UniProt P06703 1-90). Description: other fluorescence titration.
Assay [4] addresses B2. Description: ITC. This is another data set of the same source.
Assay [5] deals with T1, S100A6. Put plainly: ITC.
The assay “Annexin I peptide” concerns the target B1. Description: ITC.

Sequence of S100A10 (P60903 whole entry): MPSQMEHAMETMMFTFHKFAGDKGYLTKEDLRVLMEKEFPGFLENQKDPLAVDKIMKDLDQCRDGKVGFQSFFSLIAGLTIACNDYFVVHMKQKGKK

For Ac-STVHEILSKLSLEGY [Annexin II peptide], the “stoichiometry N” value in the assay with S100A11 [1] and in the assay with S100A10 was 2 binding sites per dimer each time.
B1: the dissociation constant Kd in the assay with S100A11 [2] was found to be 5 ± 1 µM; in the assay with S100A6 [3], 17 ± 4 µM; with S100A11 [4], 5 ± 2 µM; in the assay with S100A6 [5], 13 ± 4 µM.
For the molecule B2, in the assay with Annexin I peptide, the “dH at 15°C” value was -0.956 kcal/mol, the “dH at 35°C” value is -7.17 kcal/mol and the “stoichiometry N” value turned out to be 2 binding sites per dimer.

In general, stoichiometry N refers to the number of molecules, sites or subunits per partner or assembly. The term Kd denotes the free concentration of one partner at which half of the binding sites on the other are occupied at equilibrium, for simple one-to-one binding. High values mean lower affinity, low ones higher affinity.
